Test results published in patent US20090246175A1.

How the values were obtained:
[1] = target: C3 convertases (C4b2a and C3bBb); experiment: cell-based or functional assay
[2] = target: classical and lectin pathway C3 convertase C4b2a (human) (UniProt P0C0L4); experiment: cell-based or functional assay
UniProt P0C0L4, sequence (P0C0L4 20-1744 limits assumed, chain 1 of 2): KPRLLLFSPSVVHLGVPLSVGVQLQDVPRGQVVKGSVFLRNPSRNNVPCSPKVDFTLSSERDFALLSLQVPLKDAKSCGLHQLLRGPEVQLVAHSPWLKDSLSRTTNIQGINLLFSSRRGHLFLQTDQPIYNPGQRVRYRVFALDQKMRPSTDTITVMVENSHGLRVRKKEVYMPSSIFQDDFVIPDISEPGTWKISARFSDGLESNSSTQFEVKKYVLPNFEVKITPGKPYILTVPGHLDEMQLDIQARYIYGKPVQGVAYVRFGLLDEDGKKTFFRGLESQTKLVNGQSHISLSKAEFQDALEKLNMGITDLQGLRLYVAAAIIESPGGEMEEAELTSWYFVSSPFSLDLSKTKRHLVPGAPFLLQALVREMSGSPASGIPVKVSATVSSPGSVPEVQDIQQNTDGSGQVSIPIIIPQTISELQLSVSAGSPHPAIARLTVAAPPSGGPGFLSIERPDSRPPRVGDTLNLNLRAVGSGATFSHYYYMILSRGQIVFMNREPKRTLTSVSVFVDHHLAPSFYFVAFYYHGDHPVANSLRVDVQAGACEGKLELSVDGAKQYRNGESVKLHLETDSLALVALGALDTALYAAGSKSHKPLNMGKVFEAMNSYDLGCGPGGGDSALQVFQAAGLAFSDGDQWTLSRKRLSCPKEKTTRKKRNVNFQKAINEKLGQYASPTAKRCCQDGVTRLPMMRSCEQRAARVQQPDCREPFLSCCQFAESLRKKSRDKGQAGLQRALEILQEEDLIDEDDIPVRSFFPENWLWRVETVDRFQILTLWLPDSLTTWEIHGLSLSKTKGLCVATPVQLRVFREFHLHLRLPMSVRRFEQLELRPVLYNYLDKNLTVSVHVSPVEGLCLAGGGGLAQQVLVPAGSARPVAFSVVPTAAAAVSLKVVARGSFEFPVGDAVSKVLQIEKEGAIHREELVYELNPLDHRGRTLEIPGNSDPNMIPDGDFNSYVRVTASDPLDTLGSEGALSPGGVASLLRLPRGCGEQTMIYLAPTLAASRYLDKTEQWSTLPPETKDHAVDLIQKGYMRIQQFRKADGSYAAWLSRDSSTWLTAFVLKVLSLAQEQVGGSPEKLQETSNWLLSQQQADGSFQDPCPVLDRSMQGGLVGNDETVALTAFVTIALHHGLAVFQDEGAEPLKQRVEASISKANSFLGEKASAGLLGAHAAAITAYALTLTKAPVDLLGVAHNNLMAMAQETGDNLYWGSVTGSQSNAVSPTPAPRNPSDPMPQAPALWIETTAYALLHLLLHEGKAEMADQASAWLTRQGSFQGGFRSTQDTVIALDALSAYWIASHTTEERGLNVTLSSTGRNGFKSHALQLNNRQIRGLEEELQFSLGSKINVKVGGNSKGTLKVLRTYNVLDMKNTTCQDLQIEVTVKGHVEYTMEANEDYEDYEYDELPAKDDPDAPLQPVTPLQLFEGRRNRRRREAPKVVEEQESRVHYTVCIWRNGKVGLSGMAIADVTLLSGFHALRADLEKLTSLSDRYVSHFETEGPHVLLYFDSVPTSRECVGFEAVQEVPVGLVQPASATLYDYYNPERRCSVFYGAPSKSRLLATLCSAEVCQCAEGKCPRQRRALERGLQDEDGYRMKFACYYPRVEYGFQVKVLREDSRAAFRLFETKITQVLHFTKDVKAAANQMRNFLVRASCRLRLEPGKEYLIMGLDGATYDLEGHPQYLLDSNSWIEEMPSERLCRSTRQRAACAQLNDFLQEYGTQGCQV
UniProt P0C0L4, sequence (P06681 244-752 limits assumed, chain 2 of 2, further chain): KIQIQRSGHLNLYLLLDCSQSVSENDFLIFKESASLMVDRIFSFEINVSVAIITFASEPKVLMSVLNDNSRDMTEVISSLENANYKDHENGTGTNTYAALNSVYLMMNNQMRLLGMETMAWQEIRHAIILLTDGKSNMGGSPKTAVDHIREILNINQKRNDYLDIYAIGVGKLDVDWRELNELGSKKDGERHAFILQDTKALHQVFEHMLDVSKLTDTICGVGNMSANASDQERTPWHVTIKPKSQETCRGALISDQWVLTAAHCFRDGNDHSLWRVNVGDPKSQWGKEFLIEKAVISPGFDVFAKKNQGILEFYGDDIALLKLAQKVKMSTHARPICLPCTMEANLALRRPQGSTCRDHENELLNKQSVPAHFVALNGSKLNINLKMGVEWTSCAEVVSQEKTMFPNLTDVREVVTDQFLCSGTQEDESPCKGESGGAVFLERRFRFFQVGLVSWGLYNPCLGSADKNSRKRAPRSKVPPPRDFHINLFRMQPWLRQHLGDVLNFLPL

| Substance | IC50 of phagocytosis of S. aureus by human neutrophils in 10% human sera [1] [µg/mL] | C5b-9 and C3b deposition via the CP and LP (ELISA) (% inhibition at 10 µg/ml) [2] |
| --- | --- | --- |
| recombinant SCIN-B (rSCIN-B) | 0.8 |  |
| recombinant SCIN-C (rSCIN-C) | 0.12 |  |
| recombinant Staphylococcal Complement Inhibitor (rSCIN) | 0.3 | 50 |
